The target of assay [1] is T1, human DLL4 extracellular domain (human, UniProt Q9NR61 27-529).
T1 construct: purified recombinant ECD; biotin-labelled or 6xHis-tagged depending on the assay; also called huDLL4 ECD; hu DLL4 ECD
Kind of assay: binding ELISA. The procedure: (§1) Plates were then washed 3 times. 100 μl/well of recombinant rat/human chimeric or recombinant human anti-DLL4 antibodies were then added to the plate (0.00164-27 nM, 4-fold serial dilution in ELISA buffer=PBST, 10% Superblock (Pierce #37515)) for 1 hour at 25° C. with shaking and then washed again 3 times. Plates were incubated with goat anti-human HRP (Pierce #31412) (1:40,000 dilution in ELISA buffer, 100 μl/well) for 1 hour at 25° C. with shaking, then washed 3 times. After the final wash, plates were incubated with 100 μl/well ELISA substrate (Sigma #T8665). The reaction was stopped after 8 minutes at 25° C. with 100 μl/well 1N HCl and the absorbance was read at 450 nm. Data were analyzed using Graphpad Prism software, and EC50 values were reported.
(§2) Purified variants were further characterized for their affinities for human, murine and cynomolgus DLL4 by binding ELISA (Example 1.2, Method 2), by Biacore (Example 1.1), and by Flow Cytometry (FACS). […] The humanized variants were then tested for their functionality with human and murine DLL4 by competition ELISA (Example 1.3) and by Notch reporter assay (Example 1.6).
On the technique in general: An ELISA detects its analyte on a solid surface through an enzyme-linked reagent.

In assay [2] the target is T2, cynomolgus monkey DLL4 extracellular domain (cynomolgus monkey).
T2 construct: extracellular domain; also called cynoDLL4 ECD; Cyno DLL4
Description: binding ELISA. The procedure: as §1, §2

For assay [3], the target named is T3, mouse DLL4 extracellular domain (mouse, UniProt Q9JI71 27-532).
T3 construct: extracellular domain; also called muDLL4 ECD; murine DLL4
T3 sequence (Q9JI71 27-532): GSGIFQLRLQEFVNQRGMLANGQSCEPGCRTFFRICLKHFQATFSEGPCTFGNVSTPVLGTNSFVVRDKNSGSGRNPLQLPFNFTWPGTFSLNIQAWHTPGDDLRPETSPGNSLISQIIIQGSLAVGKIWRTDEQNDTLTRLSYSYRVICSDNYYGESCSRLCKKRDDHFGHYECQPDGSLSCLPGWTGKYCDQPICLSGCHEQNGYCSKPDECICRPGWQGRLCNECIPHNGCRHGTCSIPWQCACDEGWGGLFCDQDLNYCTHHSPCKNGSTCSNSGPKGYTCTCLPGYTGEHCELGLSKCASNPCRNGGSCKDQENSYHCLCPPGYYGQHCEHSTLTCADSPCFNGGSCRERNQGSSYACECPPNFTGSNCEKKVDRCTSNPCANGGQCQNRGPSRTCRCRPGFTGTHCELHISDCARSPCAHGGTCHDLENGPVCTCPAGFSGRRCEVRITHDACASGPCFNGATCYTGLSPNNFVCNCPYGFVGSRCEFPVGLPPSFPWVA
Kind of assay: binding ELISA. The procedure:
as §1, §2

The target of assay [4] is T1, human DLL4 extracellular domain. Description: competition ELISA vs Notch-1. The procedure: (§3) Plates were then washed 3 times with wash buffer (PBS, 0.05% Tween-20) and blocked with 200 μl/well blocking buffer (D-PBS, 1% BSA, 1 mM CaCl₂, 0.05% Tween-20) for 1 hour at 25° C. While blocking, biotin labeled DLL4 extracellular domain (14 nM) was mixed with antibody (30 pM-66 nM, 3-fold serial dilution in blocking buffer) for 1 hour at 25° C. with shaking. Assay plates were washed after blocking, and incubated with DLL4/antibody mixtures (100 μl/well, 1 hour at 25° C. with shaking). Plates were washed again and 100 μl/well streptavidin conjugated with HRP (Fitzgerald #65R-S104PHRPx, diluted 1:5,000 in blocking buffer) was added for 1 hour at 25° C. with shaking. After a final wash, plates were developed using 100 μl/well substrate (TMB Sigma #T8665), and the reaction was stopped using 100 μl/well 1N HCl, and the absorbance was read at 450 nm. Data were analyzed using Graphpad Prism software and IC₅₀ values were reported as the concentration of antibody to achieve 50% reduction of DLL4 bound to Notch1.
as §2

Assay [5] deals with T3, mouse DLL4 extracellular domain. Description: competition ELISA vs Notch-1. The procedure: as §3, §2
Assay [6] concerns the target T1, human DLL4 extracellular domain. Description: SPR (Biacore). Summed up:
(§4)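 Purified anti-DLL4 antibodies (1 μg/ml) captured on immobilized goat anti-human Fc, with DLL4 ECD injected as analyte; HBS-EPB running buffer (pH 7.4), 25° C, referenced against capture-only surface. On/off rates from global 1:1 Langmuir fit; KD = Koff/Kon.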
Background: SPR reads the build-up and loss of mass on a sensor chip optically.

For assay [7], the target named is T2, cynomolgus monkey DLL4 extracellular …. Description: SPR (Biacore). Summed up: as §4
Assay [8] has as its target T4, human DLL4, full length, on cells (human, UniProt Q9NR61 27-685). Description: cell-based or functional assay.
In assay [9] the target is T1, human DLL4 extracellular domain. Kind of assay: SPR (Biacore). The procedure:
(§5) The BIACORE® surface plasmon resonance assay (Biacore, Inc., Piscataway, N.J., US) determines the affinity of antibodies with kinetic measurements of on-rate and off-rate constants. Binding of DLL4 antibodies to a purified recombinant DLL4 extracellular domain (ECD) was determined by surface plasmon resonance-based measurements with a Biacore® instrument (either a Biacore 2000, Biacore 3000, or Biacore T100; GE Healthcare, Piscataway, N.J., US) using running buffer HBS-EPB (10 mM HEPES [pH 7.4], 150 mM NaCl, 3 mM EDTA, 0.1 mg/ml BSA and 0.005% surfactant P20) at 25° C. For example, approximately 9000 RU of goat anti-human Fc specific polyclonal antibody (Thermo Fisher Scientific Inc., Rockford, Ill., US) diluted in 10 mM sodium acetate (pH 4.5) is directly immobilized across a CMS research grade biosensor chip using a standard amine coupling kit according to manufacturer's instructions and procedures at 25 μg/ml. Unreacted moieties on the biosensor surface were blocked with ethanolamine. For kinetic analysis, rate equations derived from the 1:1 Langmuir binding model were fitted simultaneously to multiple antigen injections (using global fit analysis) with the use of Scrubber 2 (BioLogic Software), Biacore Biaevaluation 4.0.1 software or Biacore T100 Evaluation software. Purified antibodies were diluted in running buffer for capture across goat anti-human Fc reaction surfaces. Antibodies to be captured as a ligand (1 μg/ml) were injected over reaction matrices at a flow rate of 10 μl/min. During the assay, all measurements were referenced against the capture surface alone (i.e., with no captured anti-DLL4 antibody). […] The equilibrium dissociation constant KD (M) of the reaction between antibodies and the target antigen was then calculated from the kinetic rate constants by the following formula: KD=Koff/Kₒₙ. Binding was recorded as a function of time and kinetic rate constants were calculated.
This is another data set of the same source.

Assay [10] concerns the target T3, mouse DLL4 extracellular domain. Kind of assay: SPR (Biacore). The procedure: as §5
In assay [11] the target is T5, rat DLL4 extracellular domain (rat, UniProt D3ZHH1 28-530).
T5 construct: extracellular domain; also called ratDLL4 ECD
T5 sequence (D3ZHH1 28-530): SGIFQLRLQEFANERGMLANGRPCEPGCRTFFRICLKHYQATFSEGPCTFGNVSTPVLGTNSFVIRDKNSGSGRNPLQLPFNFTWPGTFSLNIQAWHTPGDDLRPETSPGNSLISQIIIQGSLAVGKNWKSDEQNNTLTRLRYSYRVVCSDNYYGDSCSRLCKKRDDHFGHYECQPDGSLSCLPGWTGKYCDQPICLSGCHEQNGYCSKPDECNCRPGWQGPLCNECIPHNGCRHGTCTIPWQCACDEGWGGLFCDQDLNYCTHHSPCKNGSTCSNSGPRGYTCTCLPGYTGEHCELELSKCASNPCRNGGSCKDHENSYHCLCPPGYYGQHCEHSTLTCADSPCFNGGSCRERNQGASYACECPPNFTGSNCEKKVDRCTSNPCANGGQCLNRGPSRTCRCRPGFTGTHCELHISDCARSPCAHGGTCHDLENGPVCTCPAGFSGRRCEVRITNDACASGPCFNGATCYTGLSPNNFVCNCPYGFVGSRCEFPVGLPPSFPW
Description: SPR (Biacore). A digest of the protocol: as §4

In assay [12] the target is T3, mouse DLL4 extracellular domain. Description: SPR (Biacore). Summed up: as §4
The source holds these as a separate data set.

In assay [13] the target is T4, human DLL4, full length, on cells. Kind of assay: FACS, DLL4 cells.
Assay [14] has as its target T6, mouse DLL4 on cells (mouse, UniProt Q9JI71 27-686).
T6 construct: whole, on cells; also called mouse DLL4-293G; mu DLL4 cells
Description: FACS, DLL4 cells. On the technique in general: Flow cytometry measures light scatter and fluorescence of single cells or particles in a stream.

In assay [15] the target is T4, human DLL4, full length, on cells. Kind of assay: competition FACS: huNotch-1 to DLL4 cells. The procedure: Notch blocking assay: Briefly, stable cell lines overexpressing cell-surface DLL4 were harvested from tissue culture flasks and re-suspended in phosphate buffered saline (PBS) containing 1% bovine serum albumin and 1 mM CaCl₂ (FACS buffer). HEK293G-DLL4 cells were dispensed into 96-well plate (v-bottom) at 1.5×10⁵ cells/well in FACS buffer. After spinning down cells and discarding the supernatant, 50 μL of purified IgG with appropriate dilution were added to each well, and incubated on ice at 4° C. for 60 minutes, followed by addition of 50 μL/well of Notch1-biotin at 0.2 μg/mL for human DLL4-293G or 2.0 μg/mL for mouse DLL4-293G (1.0 or 0.1 μg/mL final) for an additional 1 hour incubation ice at 4° C. After washing the cells two times with FACS buffer, 50 μL of R-phycoerythrin-conjugated streptavidin (1:150 dilution in FACS buffer) (Jackson ImmunoResearch, West Grove, Pa., Cat.#016-110-084) were added. Following an incubation on ice (4° C., 60 minutes), cells were washed three times and resuspended in FACS buffer. Fluorescence was measured using a Becton Dickinson FACSCalibur-HTS (Becton Dickinson, San Jose, Calif.). Data were analyzed using Graphpad Prism software, and IC₅₀ values were reported as the concentration of antibody to achieve 50% reduction of Notch1 bound to DLL4 expressing cells.

For assay [16] the target is unchanged. Description: FACS, DLL4 cells. The source holds these as a separate data set.
Assay [17] concerns the target T6, mouse DLL4 on cells. Description: FACS, DLL4 cells. The source holds these as a separate data set.

Where two headings read alike, the source gives them in different places.

We go through five molecules from patent US20110217237A1 (AbbVie / Abbott, published 2011).

T1 sequence (Q9NR61 27-529 limits assumed): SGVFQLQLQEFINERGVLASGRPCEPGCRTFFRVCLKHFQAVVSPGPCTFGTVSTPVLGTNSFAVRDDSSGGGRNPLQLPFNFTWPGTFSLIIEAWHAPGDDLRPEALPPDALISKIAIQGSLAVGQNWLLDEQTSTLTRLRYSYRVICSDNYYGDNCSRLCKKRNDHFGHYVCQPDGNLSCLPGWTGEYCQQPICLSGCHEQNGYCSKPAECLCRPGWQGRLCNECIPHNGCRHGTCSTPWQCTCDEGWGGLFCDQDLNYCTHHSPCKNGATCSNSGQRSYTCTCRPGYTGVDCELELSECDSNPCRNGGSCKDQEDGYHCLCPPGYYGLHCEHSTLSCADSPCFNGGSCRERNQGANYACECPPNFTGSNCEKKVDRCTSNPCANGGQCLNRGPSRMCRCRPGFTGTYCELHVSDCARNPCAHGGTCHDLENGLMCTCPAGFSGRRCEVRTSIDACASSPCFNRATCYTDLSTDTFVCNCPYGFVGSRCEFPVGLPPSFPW
T4 sequence (Q9NR61 27-685 limits assumed): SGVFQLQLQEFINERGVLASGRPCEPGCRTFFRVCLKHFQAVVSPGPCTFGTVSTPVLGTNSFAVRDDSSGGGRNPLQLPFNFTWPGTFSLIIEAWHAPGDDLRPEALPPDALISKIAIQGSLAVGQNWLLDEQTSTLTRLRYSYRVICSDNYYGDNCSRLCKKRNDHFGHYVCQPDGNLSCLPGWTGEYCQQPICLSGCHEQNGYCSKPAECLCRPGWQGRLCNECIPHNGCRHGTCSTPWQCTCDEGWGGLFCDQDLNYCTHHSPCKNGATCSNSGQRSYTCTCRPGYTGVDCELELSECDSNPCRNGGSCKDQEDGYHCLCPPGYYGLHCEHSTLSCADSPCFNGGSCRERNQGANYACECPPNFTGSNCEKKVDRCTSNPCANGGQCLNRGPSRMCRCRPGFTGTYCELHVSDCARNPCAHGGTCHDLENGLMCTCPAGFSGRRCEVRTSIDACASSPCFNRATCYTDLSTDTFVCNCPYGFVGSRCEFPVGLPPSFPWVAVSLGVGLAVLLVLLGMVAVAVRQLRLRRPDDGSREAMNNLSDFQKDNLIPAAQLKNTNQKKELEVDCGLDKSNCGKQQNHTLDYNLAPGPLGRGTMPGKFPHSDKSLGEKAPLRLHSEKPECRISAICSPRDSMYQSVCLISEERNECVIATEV
T6 sequence (Q9JI71 27-686): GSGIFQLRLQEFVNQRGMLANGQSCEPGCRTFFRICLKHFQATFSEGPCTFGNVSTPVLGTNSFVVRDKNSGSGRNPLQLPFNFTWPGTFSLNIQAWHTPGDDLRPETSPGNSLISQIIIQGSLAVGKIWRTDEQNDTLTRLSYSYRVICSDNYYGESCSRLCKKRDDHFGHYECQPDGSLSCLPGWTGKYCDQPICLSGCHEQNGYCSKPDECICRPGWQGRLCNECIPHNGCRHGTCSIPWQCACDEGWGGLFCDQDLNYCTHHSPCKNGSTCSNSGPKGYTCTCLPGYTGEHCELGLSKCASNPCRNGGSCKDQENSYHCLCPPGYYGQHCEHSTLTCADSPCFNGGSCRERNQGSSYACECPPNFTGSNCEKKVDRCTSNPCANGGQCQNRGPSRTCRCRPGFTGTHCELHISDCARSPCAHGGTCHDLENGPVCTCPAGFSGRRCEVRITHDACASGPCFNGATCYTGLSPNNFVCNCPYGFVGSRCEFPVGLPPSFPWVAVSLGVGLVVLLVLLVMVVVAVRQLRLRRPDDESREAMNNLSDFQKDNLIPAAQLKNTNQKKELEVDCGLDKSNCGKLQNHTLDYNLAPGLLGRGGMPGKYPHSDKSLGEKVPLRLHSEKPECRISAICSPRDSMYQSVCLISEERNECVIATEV

B1: h1A11.1 (antibody, V domains shown)
VH: EVQLVESGGGLVQPGGSLRLSCAASGFTFSNFPMAWVRQAPGKGLEWVATISSSDGTTYYRDSVKGRFTISRDNAKNSLYLQMNSLRAEDTAVYYCARGYYNSPFAYWGQGTLVTVSS
VL: DIQMTQSPSSLSASVGDRVTITCRASEDIYSNLAWYQQKPGKAPKLLIYDTNNLADGVPSRFSGSGSGTDFTLTISSLQPEDFATYYCQQYNNYPPTFGQGTKLEIKR
notes: humanized IgG; also called hu1A11.1; VH.1/VL.1 1A11
The term EC50 denotes the midpoint of the concentration-response curve. For orientation: IC50 means the point on the concentration scale where inhibition reaches its midpoint. For orientation: Kd means a measure of binding affinity in units of concentration. As usually defined, the koff is the first-order rate constant of dissociation. In general, kon refers to a measure of how fast the partners come together. For B1, the EC50 in [1] is 0.08 nM; in [2], 0.13 nM; in assay [3], 0.09 nM; in assay [13], 3.13 nM; in [14], 0.21 nM. The IC50 in assay [4] amounted to 0.4 nM; in assay [5] it was 1.3 nM. Moreover, the Kd is 13 nM in [6]; 18 nM in assay [7]; 15 nM in assay [9]; 38 nM in assay [10]; 32 nM in [12]. In addition, the figures for the off-rate constant (koff) in assay [6], in assay [7] and in assay [12] were 0.00212 s⁻¹, 0.00255 s⁻¹ and 0.00498 s⁻¹, respectively. Besides, the kon in [6] was found to be 158000 M⁻¹ s⁻¹; in [7], 144000 M⁻¹ s⁻¹; in assay [12], 156000 M⁻¹ s⁻¹. Moreover, the “Reporter Assay (EC50, nM)” value in assay [8] was found to be 2.53 nM. For the same molecule, the binding result in [11] is given as “no binding”.

B2: h1A11.8 (antibody, V domains shown)
VH: EVQLVESGGGLVQPGGSLRLSCAASGFTFSNFPMAWVRQAPGKGLEWVATISSSDGTTYYRDSVKGRFTISRDNAKSSLYLQMNSLRAEDTAVYYCSRGYYNSPFAYWGQGTLVTVSS
VL: EIVMTQSPATLSVSPGERATLSCRASEDIYSNLAWYQQKPGQSPRLLIFDTNNLADGVPARFSGSGSGTESTLTISSLQSEDFAVYFCQQYNNYPPTFGQGTKLEIKR
notes: humanized IgG; also called VH.1a/VL.2a 1A11
Regarding B2, the EC50 in assay [1] came out at 0.06 nM; in assay [2] it was 0.17 nM; in assay [3] it was 0.09 nM; in assay [13] it was 3.34 nM; in assay [14] it was 0.18 nM. For the same molecule, the results for the IC50 in assay [4] and in assay [5] were 0.35 nM and 0.9 nM, respectively. Besides, in assay [8], the “Reporter Assay (EC50, nM)” value was determined as 4.24 nM. In addition, the dissociation constant Kd in assay [9] was 11 nM; in [10], 24 nM.

B3: 14G1 chimeric antibody (antibody, human IgG1, V domains shown)
VH: EVQLQQSGAELAKPGSSVKISCKASGYTFTNYDISWIKQTNGQGLEYLGYINTGSGGIYSNEKFKGKATLTVDKSSNTAFMQLSSLTPEDTAVYYCVREGNNFDHWGQGVKVTVSS
VL: DTVMTQSPASMSTSVGERVTVNCKASQSVGTIVAWFQQKPGQSPKRLIYLATYRHTGVPDRFIGSGFGRDFTLTISNVEAEDLAVYYCLQYGSRPFTFGAGTKLEIKR
notes: also called Chimera of 14G1
In the case of B3, the concentration for half-maximal inhibition (IC50) in assay [15] was 4.11 nM. Further, the EC50 in assay [16] was 0.994 nM.

B4: 38H12 chimeric antibody (antibody, human IgG1, V domains shown)
VH: EVQLVESGGGLVQPGRSLKLSCAASGFTFSNYGMYWIRQAPTKGLQWVAFISHGGGITYYRDSVKGRFTISRDNAKSTLYLQMDSLRSEDTATYHCAALNWELGIDYWGQGVMVTVSS
VL: DIQMTQSPASLSASLGETISIECRASEDIYSNLAWYQKKSGKSPQLLIYAANRLQDGVPSRFSGSGSGTQYSLKISGMQPEDEGDYFCLQGSKFPLTFGSGTKLEIKR
notes: also called Chimera of 38H12
As to B4, the IC50 in assay [15] is 1.44 nM. In addition, the EC50 in assay [16] came out at 1.47 nM.

B5: 32C7 chimeric antibody (antibody, human IgG1, V domains shown)
VH: EVQLVESGGGLVQPGRSLKLSCLASGFPFSSVWMTWIRQAPGKGLEWIATITNSGASTYYSASVKGRFTISRDNVKSTLYLQMTSLGSEDTATYYCTRVGTSFDYWGQGVMVTVSS
VL: DIQMTQSPASLSASLGETVTIECRASDDIYNGLAWFQQKPGKSPQLLIYDANTLHTGVPSRFSGSGSGTQFSLKINSLQSEDVASYFCQQFYDYPPYTFGAGTKLELKR
notes: also called Chimera of 32C7
Consider B5, for which the values for the EC50 in [16] and in [17] were 3.71 nM and 4.11 nM, respectively.
